Values belong to the binder of their own block, whether it stands above or below them.
Target: rFGF2 (human, UniProt P09038)
Assay: SPR

Chain of rFGF2 (P09038 143-288): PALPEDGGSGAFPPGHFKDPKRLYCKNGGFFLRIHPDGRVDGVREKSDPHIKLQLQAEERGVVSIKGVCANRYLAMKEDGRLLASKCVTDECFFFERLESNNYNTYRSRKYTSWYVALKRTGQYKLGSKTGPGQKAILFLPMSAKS

Kd: 17 nM
B1: 85L117H (antibody, V domains shown)
VH: QVQLVQSGAELKRPGSSVKVSCRASGDTFKNYAITWVRQAPGQGLEWVGGIDPLVGVPNYTHRFQGRVTITADEPTSTTYMEFRDLTSDDTAVYYCARGVRDQHWSYFDSWGQGTLVTVSS
VL: QSVLTQPPSASGTPGQTVNISCSGATSNIGGGSVNWYQQLPGAAPRLLIHSDNERASGVPDRFSGSKSGTSASLAISGLQSEDEADYFCASWDDSLDGHVVFGGGTKVTVL

Kd: 0.413 nM
B2: Murine 3F12E7 (antibody, V domains shown)
VH: GELQESGPELVKPGASVKISCKASGYSFTGYYMNWVKHSPEKSLEWIGEINPSTGGTSYNQKFKAKATLTVDKSSTTAYMQLKGLTSEDSAVYYCASGGYYEGFDYWGQGTTVTVSS
VL: DIELTQSPASLSASVGETVTGNIYSYLAWYQQKQGKSPQLLVYDAKTLADGVPSRFTGSGSGTQFSLKINSLQPEDFGSYYCQHFWNTPRTFGGGTKLEIK

Kd: 9.1 nM
B3: 62K98H (antibody, V domains shown)
VH: QITLKESGPTLVKPTQTLTLTCTFSGFSLSTSGVGVGWIRQPPGEALEWLAVIHWNEANYYSPYLRSRLTITKDTSKNQMVLTVTNMDPVDTATYYCARGANSDSSGRLDAFDIWGQGTMVTVSS
VL: DVVMTQSPLSLPVTLGQPASISCRSSQSLIYSDGNTRLYWFHQRPGQSPRRLIYGVSNRDSGVPDRFSGSGSGTDFTLKISRVEAEDVGVYYCMQSTHWPHTFGQGTKLEIK

Source: patent US20260297170 (published 2026)
